Assay results: PMC7925594 (Nature Communications, 2021)

Tests used:
[1] = target: T1, linear tetra-ubiquitin (UniProt P0CG48 1-76; P0CG48 1-76; P0CG48 1-76; P0CG48 1-76); experiment: co-IP; purified recombinant HA-N4BP1 or domain deletion forms incubated with ubiquitin chains in assay buffer (50 mM Tris-HCl pH 7.4, 150 mM NaCl, 1 mM dithiothreitol) for 2 h at 4 °C; immunoprecipitation with anti-HA (mouse IgG as control); immunoblot; settings: both partners purified
T1 construct: ubiquitin, unit 1 of 4; ubiquitin, unit 2 of 4; ubiquitin, unit 3 of 4; ubiquitin, unit 4 of 4; also called linear tetra-ubiquitin chains; source: bought: LifeSensors (recombinant)
T1 sequence (P0CG48 1-304, one chain of several): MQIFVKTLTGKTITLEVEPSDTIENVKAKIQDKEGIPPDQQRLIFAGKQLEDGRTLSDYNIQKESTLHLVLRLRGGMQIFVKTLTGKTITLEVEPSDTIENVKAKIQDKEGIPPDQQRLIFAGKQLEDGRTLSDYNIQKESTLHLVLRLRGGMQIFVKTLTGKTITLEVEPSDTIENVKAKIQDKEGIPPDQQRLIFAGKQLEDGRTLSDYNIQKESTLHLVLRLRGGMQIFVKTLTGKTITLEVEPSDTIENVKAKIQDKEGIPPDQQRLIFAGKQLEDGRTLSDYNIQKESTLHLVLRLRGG

[2] = target: T2, linear hepta-ubiquitin (UniProt P0CG48 1-76; P0CG48 1-76; P0CG48 1-76; P0CG48 1-76; P0CG48 1-76; P0CG48 1-76; …); experiment: as above; settings: both partners purified
T2 construct: ubiquitin, unit 1 of 7; ubiquitin, unit 2 of 7; ubiquitin, unit 3 of 7; ubiquitin, unit 4 of 7; ubiquitin, unit 5 of 7; ubiquitin, unit 6 of 7; ubiquitin, unit 7 of 7; The reagents name a supplier only for the tetra-ubiquitins; also called linear ubiquitin chains; linear polyubiquitin chains
T2 sequence (P0CG48 1-532, one chain of several): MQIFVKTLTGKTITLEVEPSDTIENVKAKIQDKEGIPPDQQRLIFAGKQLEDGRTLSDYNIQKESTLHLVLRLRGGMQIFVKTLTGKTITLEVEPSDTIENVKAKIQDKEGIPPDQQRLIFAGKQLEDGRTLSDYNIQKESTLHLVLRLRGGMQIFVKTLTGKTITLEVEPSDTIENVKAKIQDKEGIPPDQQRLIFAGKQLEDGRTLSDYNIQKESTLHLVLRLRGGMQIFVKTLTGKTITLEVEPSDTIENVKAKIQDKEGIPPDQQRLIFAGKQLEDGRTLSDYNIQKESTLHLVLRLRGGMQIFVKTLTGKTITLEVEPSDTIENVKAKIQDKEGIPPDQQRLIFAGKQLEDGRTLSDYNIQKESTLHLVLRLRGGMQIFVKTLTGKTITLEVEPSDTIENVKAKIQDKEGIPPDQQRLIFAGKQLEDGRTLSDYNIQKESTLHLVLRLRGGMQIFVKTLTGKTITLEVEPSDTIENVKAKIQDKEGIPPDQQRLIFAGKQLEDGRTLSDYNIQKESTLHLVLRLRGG

B1: HA-tagged N4BP1 (full-length) (natural protein, UniProt O75113 1-896, looked up)
chain: MAARAVLDEFTAPAEKAELLEQSRGRIEGLFGVSLAVLGALGAEEPLPARIWLQLCGAQEAVHSAKEYIKGICEPELEERECYPKDMHCIFVGAESLFLKSLIQDTCADLCILDIGLLGIRGSAEAVVMARSHIQQFVKLFENKENLPSSQKESEVKREFKQFVEAHADNYTMDLLILPTSLKKELLTLTQGEENLFETGDDEVIEMRDSQQTEFTQNAATGLNISRDETVLQEEARNKAGTPVSELTKQMDTVLSSSPDVLFDPINGLTPDEEALSNERICQKRRFSDSEERHTKKQFSLENVQEGEILHDAKTLAGNVIADLSDSSADSENLSPDIKETTEEMEYNILVNFFKTMGYSQEIVEKVIKVYGPSTEPLLLLEEIEKENKRFQEDREFSAGTVYPETNKTKNKGVYSSTNELTTDSTPKKTQAHTQQNMVEKFSQLPFKVEAKPCTSNCRINTFRTVPIEQKHEVWGSNQNYICNTDPETDGLSPSVASPSPKEVNFVSRGASSHQPRVPLFPENGLHQQPEPLLPNNMKSACEKRLGCCSSPHSKPNCSTLSPPMPLPQLLPSVTDARSAGPSDHIDSSVTGVQRFRDTLKIPYKLELKNEPGRTDLKHIVIDGSNVAITHGLKKFFSCRGIAIAVEYFWKLGNRNITVFVPQWRTRRDPNVTEQHFLTQLQELGILSLTPARMVFGERIASHDDRFLLHLADKTGGIIVTNDNFREFVNESVSWREIITKRLLQYTFVGDIFMVPDDPLGRSGPRLEEFLQKEVCLRDMQPLLSALPNVGMFDPSFRVPGTQAASTSHQPPTRIQGAPSSHWLPQQPHFPLLPALPSLQQNLPMPAQRSSAETNELREALLKIFPDSEQRLKIDQILVAHPYMKDLNALSAMVLD
notes: the vector of the other experiments is only called a mammalian expression vector; also called HA-N4BP1; F.L; source: HEK293T or N4BP1-/- HEK293T, transfected, in lysate; also overexpressed in HEK293T and purified (immunoprecipitation, HA peptide elution, Superdex 200 gel filtration); not shown: HA, N-terminal, kept
**Q.** Does B1 bind [1]?
**A.** Result: binds

**Q.** Does B1 bind [2]?
**A.** Result: binds
